Assay results from patent US20240116985A1, “STAPLED PEPTIDES AND METHODS THEREOF” (priority 2020, published 2024).
Starred links: 1 amine or outer side, 2 acyl side, 3 side chain; linkers in the order of their positions; H or OH if unused. Positions of bridges follow the written chain, without caps; N, C: chain ends. Non-standard residues stand in square brackets, D forms with d. Primed or numbered codes have the meaning given here. *: point of attachment. B5(10) = 2-amino-2-(pent-4-en-1-yl)hept-6-enoic acid, bis(4-pentenyl)glycine, stitching residue bearing both staples, C=CCCCC(CCCC=C)(N[*:1])C(=O)[*:2]; PyrS2″ = (S)-3-amino-1-((pent-4-en-1-yloxy)carbonyl)pyrrolidine-3-carboxylic acid (stapling residue), C=CCCCOC(=O)N1CC[C@@](N[*:1])(C(=O)[*:2])C1; B5(5) = 2,2-bis(4-pentenyl)glycine, 2-amino-2-(pent-4-en-1-yl)hept-6-enoic acid (stitching residue), C=CCCCC(CCCC=C)(N[*:1])C(=O)[*:2]; PyrS2 = (S)-3-amino-1-((pent-4-en-1-yloxy)carbonyl)pyrrolidine-3-carboxylic acid, C=CCCCOC(=O)N1CC[C@@](N[*:1])(C(=O)[*:2])C1; B5(12) = 2-amino-2-(pent-4-en-1-yl)hept-6-enoic acid (two olefin side chains), C=CCCCC(CCCC=C)(N[*:1])C(=O)[*:2]; B5(19) = 2-amino-2-(pent-4-en-1-yl)hept-6-enoic acid (bis(4-pentenyl)glycine), C=CCCCC(CCCC=C)(N[*:1])C(=O)[*:2]; B5(3) = 2,2-bis(4-pentenyl)glycine (stitching residue), C=CCCCC(CCCC=C)(N[*:1])C(=O)[*:2]; BzAm2Allyl = N-terminal 2-allylbenzoic acid (acyl cap), C=CCc1ccccc1C(=O)*; 4pentenyl = N-terminal pent-4-enoic acid (acyl cap), C=CCCC(=O)*; 5hexenyl = N-terminal hex-5-enoic acid (acyl cap), C=CCCCC(=O)*; 3butenyl = N-terminal but-3-enoic acid (acyl cap), C=CCC(=O)*; Phe(3-COOH) = N[C@@H](Cc1cccc(C(=O)O)c1)C(=O)O; Phe(2-Cl) = N[C@@H](Cc1ccccc1Cl)C(=O)O; 1Nal = N[C@@H](Cc1cccc2ccccc12)C(=O)O; Bta = N[C@@H](Cc1csc2ccccc12)C(=O)O; Lys(iPr) = CC(C)NCCCC[C@H](N)C(=O)O; αAllylPro = C=CC[C@@]1(C(=O)O)CCCN1; tBuAla = CC(C)(C)C[C@H](N)C(=O)O; 3Thi = N[C@@H](Cc1ccsc1)C(=O)O; Nle = CCCC[C@H](N)C(=O)O; iPr = CC(C)*

B1: I-1278 (peptide)
peptide: Ac-[αAllylPro]D[tBuAla][B5(5)]DDAAFK(iPr)[PyrS2][Phe(2-Cl)][Bta]Q-NH2
modifications: staple 1-4, 4-11
B2: I-1280 (peptide)
peptide: Ac-[αAllylPro]D[tBuAla][B5(5)]DDAAFK(iPr)[PyrS2][Phe(2-Cl)][Bta]L-NH2
modifications: staple 1-4, 4-11
B3: I-2601 (peptide)
peptide: 4pentenyl-XD[B5(3)]ADDAAF[PyrS2]L[3Thi][Bta]Q-NH2
modifications: staple 3-10; staple (positions not given here); not fully specified (residue 1, bridges); printed as 4pentenyl-MePro-Asp-B5-Ala-Asp-Asp-Ala-Ala-Phe-PyrS2-Leu-3Thi-BztA-Gln-NH2; also: -CH=CH- in each staple reduced to -CH2-CH2-
B4: I-1404 (peptide)
peptide: Ac-[αAllylPro]DL[B5(12)]DDAAF[Nle][PyrS2″]F[Bta]Q-NH2
modifications: staple 1-4, 4-11
B5: I-1405 (peptide)
peptide: Ac-[αAllylPro]D[Nle][B5(12)]DDAAF[Nle][PyrS2″]F[Bta]Q-NH2
modifications: staple 1-4, 4-11
B6: I-2609 (peptide)
peptide: 5hexenyl-XD[B5(3)]ADDAAF[PyrS2]L[3Thi][Bta]Q-NH2
modifications: staple 3-10; staple (positions not given here); not fully specified (residue 1, bridges); printed as 5hexenyl-MePro-Asp-B5-Ala-Asp-Asp-Ala-Ala-Phe-PyrS2-Leu-3Thi-BztA-Gln-NH2; also: -CH=CH- in each staple reduced to -CH2-CH2-
B7: I-1277 (peptide)
peptide: Ac-[αAllylPro]D[tBuAla][B5(3)]DDK(iPr)AFL[PyrS2″][Phe(2-Cl)][Bta]L-NH2
modifications: staple 1-4, 4-11
B8: I-1275 (peptide)
peptide: Ac-[αAllylPro]D[tBuAla][B5(3)]DDK(iPr)AFL[PyrS2″][Phe(2-Cl)][Bta]Q-NH2
modifications: staple 1-4, 4-11
B9: I-2608 (peptide)
peptide: 3butenyl-XD[B5(3)]ADDAAF[PyrS2]L[3Thi][Bta]Q-NH2
modifications: staple 3-10; staple (positions not given here); not fully specified (residue 1, bridges); printed as 3butenyl-MePro-Asp-B5-Ala-Asp-Asp-Ala-Ala-Phe-PyrS2-Leu-3Thi-BztA-Gln-NH2; also: -CH=CH- in each staple reduced to -CH2-CH2-
B10: I-2604 (peptide)
peptide: 5hexenyl-XD[B5(3)]AD[Phe(3-COOH)]AAF[PyrS2]L[3Thi][Bta]Q-NH2
modifications: staple 3-10; staple (positions not given here); not fully specified (residue 1, bridges); printed as 5hexenyl-MePro-Asp-B5-Ala-Asp-3COOHF-Ala-Ala-Phe-PyrS2-Leu-3Thi-BztA-Gln-NH2; also: -CH=CH- in each staple reduced to -CH2-CH2-
B11: I-1273 (peptide)
peptide: Ac-[αAllylPro]D[tBuAla][B5(3)]DDK(iPr)AFT[PyrS2″][Phe(2-Cl)][Bta]T-NH2
modifications: staple 1-4, 4-11
B12: I-2603 (peptide)
peptide: 4pentenyl-XD[B5(3)]AD[Phe(3-COOH)]AAF[PyrS2]L[3Thi][Bta]Q-NH2
modifications: staple 3-10; staple (positions not given here); not fully specified (residue 1, bridges); printed as 4pentenyl-MePro-Asp-B5-Ala-Asp-3COOHF-Ala-Ala-Phe-PyrS2-Leu-3Thi-BztA-Gln-NH2
B13: I-2605 (peptide)
peptide: 4pentenyl-XD[B5(3)]AD[Phe(3-COOH)]AAF[PyrS2]L[3Thi][Bta]Q-NH2
modifications: staple 3-10; staple (positions not given here); not fully specified (residue 1, bridges); printed as 4pentenyl-MePro-Asp-B5-Ala-Asp-3COOHF-Ala-Ala-Phe-PyrS2-Leu-3Thi-BztA-Gln-NH2; also: -CH=CH- in each staple reduced to -CH2-CH2-
B14: I-1283 (peptide)
peptide: Ac-[αAllylPro]D[tBuAla][B5(5)]DEAAFK(iPr)[PyrS2][Phe(2-Cl)][Bta]L-NH2
modifications: staple 1-4, 4-11
B15: I-1279 (peptide)
peptide: Ac-[αAllylPro]D[tBuAla][B5(5)]DDAAFK(iPr)[PyrS2][Phe(2-Cl)][Bta]T-NH2
modifications: staple 1-4, 4-11
B16: I-1401 (peptide)
peptide: Ac-[αAllylPro]D[Nle][B5(19)]DDAAF[Nle][PyrS2][3Thi][Bta]Q-NH2
modifications: staple 1-4, 4-11
B17: I-1276 (peptide)
peptide: Ac-[αAllylPro]D[tBuAla][B5(3)]DDK(iPr)AFL[PyrS2″][Phe(2-Cl)][Bta]T-NH2
modifications: staple 1-4, 4-11
B18: I-2602 (peptide)
peptide: 5hexenyl-XD[B5(3)]AD[Phe(3-COOH)]AAF[PyrS2]L[3Thi][Bta]Q-NH2
modifications: staple 3-10; staple (positions not given here); not fully specified (residue 1, bridges); printed as 5hexenyl-MePro-Asp-B5-Ala-Asp-3COOHF-Ala-Ala-Phe-PyrS2-Leu-3Thi-BztA-Gln-NH2
B19: I-2600 (peptide)
peptide: 5hexenyl-XD[B5(3)]ADDAAF[PyrS2]L[3Thi][Bta]Q-NH2
modifications: staple 3-10; staple (positions not given here); not fully specified (residue 1, bridges); printed as 5hexenyl-MePro-Asp-B5-Ala-Asp-Asp-Ala-Ala-Phe-PyrS2-Leu-3Thi-BztA-Gln-NH2; also: -CH=CH- in each staple reduced to -CH2-CH2-
B20: I-1269 (peptide)
peptide: Ac-[αAllylPro]D[tBuAla][B5(3)]DTAAFT[PyrS2″][1Nal][Bta]S-NH2
modifications: staple 1-4, 4-11
B21: I-1281 (peptide)
peptide: Ac-[αAllylPro]D[tBuAla][B5(5)]DEAAFK(iPr)[PyrS2][Phe(2-Cl)][Bta]Q-NH2
modifications: staple 1-4, 4-11
B22: I-2606 (peptide)
peptide: BzAm2Allyl-XD[B5(3)]ADDAAF[PyrS2]L[3Thi][Bta]Q-NH2
modifications: staple 3-10; staple (positions not given here); not fully specified (residue 1, bridges); printed as BzAm2Allyl-MePro-Asp-B5-Ala-Asp-Asp-Ala-Ala-Phe-PyrS2-Leu-3Thi-BztA-Gln-NH2; also: -CH=CH- in each staple reduced to -CH2-CH2-
B23: I-1282 (peptide)
peptide: Ac-[αAllylPro]D[tBuAla][B5(5)]DEAAFK(iPr)[PyrS2][Phe(2-Cl)][Bta]T-NH2
modifications: staple 1-4, 4-11
B24: I-2607 (peptide)
peptide: BzAm2Allyl-XD[B5(3)]AD[Phe(3-COOH)]AAF[PyrS2]L[3Thi][Bta]Q-NH2
modifications: staple 3-10; staple (positions not given here); not fully specified (residue 1, bridges); printed as BzAm2Allyl-MePro-Asp-B5-Ala-Asp-3COOHF-Ala-Ala-Phe-PyrS2-Leu-3Thi-BztA-Gln-NH2; also: -CH=CH- in each staple reduced to -CH2-CH2-

Legend:
[1] = target: Bcat-Halo (UniProt P35222); experiment: NanoBRET Abs IC50, HEK293 cells, Bcat-Halo/TCF4-Luc; competitor TCF4-Luc
[2] = target: full-length beta-Catenin (Uniprot ID P35222) (Homo sapiens (Human)) (UniProt P35222); experiment: fluorescence polarization competition; full-length beta-catenin + 5FAM-TCF4(10-53) probe
Target sequence in this assay (P35222 whole entry, one chain of several): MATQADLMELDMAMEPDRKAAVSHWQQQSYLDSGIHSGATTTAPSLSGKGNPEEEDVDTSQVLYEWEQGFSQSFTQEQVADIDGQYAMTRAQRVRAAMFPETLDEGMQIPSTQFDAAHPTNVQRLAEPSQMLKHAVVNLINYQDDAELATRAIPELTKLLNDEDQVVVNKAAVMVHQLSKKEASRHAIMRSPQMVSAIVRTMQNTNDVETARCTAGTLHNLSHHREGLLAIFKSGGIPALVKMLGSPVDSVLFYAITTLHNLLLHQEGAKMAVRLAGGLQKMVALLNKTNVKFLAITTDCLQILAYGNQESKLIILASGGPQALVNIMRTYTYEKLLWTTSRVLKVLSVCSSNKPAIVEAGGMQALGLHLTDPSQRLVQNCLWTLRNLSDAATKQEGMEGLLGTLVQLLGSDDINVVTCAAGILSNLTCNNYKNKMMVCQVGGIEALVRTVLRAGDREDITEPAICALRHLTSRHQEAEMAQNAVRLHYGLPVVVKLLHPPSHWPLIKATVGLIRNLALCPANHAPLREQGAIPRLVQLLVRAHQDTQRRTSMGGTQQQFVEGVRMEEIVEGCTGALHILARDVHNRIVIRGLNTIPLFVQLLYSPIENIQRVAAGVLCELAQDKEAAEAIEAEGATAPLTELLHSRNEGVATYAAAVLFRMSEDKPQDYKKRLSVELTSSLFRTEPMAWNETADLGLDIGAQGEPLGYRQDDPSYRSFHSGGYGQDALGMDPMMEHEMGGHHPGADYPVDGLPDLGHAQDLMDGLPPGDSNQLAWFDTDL

[3] = target: full-length beta-Catenin (Uniprot ID P35222) (Homo sapiens (Human)) (UniProt P35222); experiment: fluorescence polarization competition against 5FAM-TCF4(10-53) on full-length beta-catenin
Target sequence in this assay (P35222 whole entry, one chain of several): as above

[4] = target: full-length beta-Catenin (Uniprot ID P35222) (Homo sapiens (Human)) (UniProt P35222); experiment: fluorescence polarization competition against 5FAM TCF4 10-53 probe
Target sequence in this assay (P35222 whole entry, one chain of several): as above

[5] = target: Bcat-Halo (beta-catenin HaloTag construct expressed in HEK293 cells) (UniProt P35222); experiment: NanoBRET Abs IC50 in HEK293 cells; B-cat-Halo with competitor TCF4-Luc
[6] = target: full-length beta-Catenin (Uniprot ID P35222) (Homo sapiens (Human)) (UniProt P35222); experiment: fluorescence polarization competition; full-length beta-catenin, competitor 5FAM-TCF4 10-53 probe
Target sequence in this assay (P35222 2-781 limits assumed): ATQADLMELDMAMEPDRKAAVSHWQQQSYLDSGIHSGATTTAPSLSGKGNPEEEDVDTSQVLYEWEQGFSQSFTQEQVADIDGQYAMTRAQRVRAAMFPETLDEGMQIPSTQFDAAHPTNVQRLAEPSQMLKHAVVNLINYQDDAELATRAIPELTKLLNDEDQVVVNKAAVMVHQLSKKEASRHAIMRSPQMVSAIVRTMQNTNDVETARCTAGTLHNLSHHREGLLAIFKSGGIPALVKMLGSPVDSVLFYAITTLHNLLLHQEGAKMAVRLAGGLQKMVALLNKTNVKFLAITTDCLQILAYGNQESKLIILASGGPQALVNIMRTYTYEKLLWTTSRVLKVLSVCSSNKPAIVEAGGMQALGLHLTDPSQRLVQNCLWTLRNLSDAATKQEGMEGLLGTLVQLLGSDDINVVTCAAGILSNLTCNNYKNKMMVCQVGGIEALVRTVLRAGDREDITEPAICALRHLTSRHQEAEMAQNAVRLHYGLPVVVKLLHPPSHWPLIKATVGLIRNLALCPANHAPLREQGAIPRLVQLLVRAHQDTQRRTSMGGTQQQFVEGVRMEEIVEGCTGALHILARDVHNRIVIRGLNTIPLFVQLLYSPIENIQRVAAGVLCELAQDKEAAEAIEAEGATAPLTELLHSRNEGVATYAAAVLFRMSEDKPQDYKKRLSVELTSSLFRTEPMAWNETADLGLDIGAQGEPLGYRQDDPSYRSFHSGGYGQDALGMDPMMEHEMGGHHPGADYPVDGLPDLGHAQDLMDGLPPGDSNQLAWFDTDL

[7] = target: beta-catenin (Homo sapiens (Human)) (UniProt P35222); experiment: fluorescence polarization competition; full-length beta-catenin with 5FAM-TCF4(10-53) probe as competitor
[8] = target: full-length beta-Catenin (Uniprot ID P35222) (Homo sapiens (Human)) (UniProt P35222); experiment: cell-based or functional assay
Target sequence in this assay (P35222 whole entry, one chain of several): as the sequence (P35222 whole entry, one chain of several) above

Sequence of Bcat-Halo (beta-catenin HaloTag construct expressed in HEK293 cells) (P35222 whole entry): as the sequence (P35222 whole entry, one chain of several) above
Sequence of Bcat-Halo (P35222 whole entry): as the sequence (P35222 whole entry, one chain of several) above
Sequence of beta-catenin (Homo sapiens (Human)) (P35222 whole entry): as the sequence (P35222 whole entry, one chain of several) above

Binder	IC50 [1] [nM]	EC50 [2] [nM]	IC50 [3] [nM]	IC50 [4] [nM]	further results
B1	18000	10	10	–	–
B2	24700	22	22	–	–
B3	–	–	–	592	–
B4	–	–	–	–	IC50 [5]: 36800 nM; IC50 [6]: 113 nM; EC50 [7]: 113 nM
B5	–	–	–	–	IC50 [5]: 40100 nM; IC50 [6]: 9 nM; EC50 [7]: 9 nM
B6	–	–	–	2650	–
B7	> 20000	17	17	–	–
B8	27800	9	9	–	–
B9	–	–	–	251	–
B10	–	–	–	1120	–
B11	> 20000	9	9	–	–
B12	–	–	–	767	–
B13	–	–	–	608	–
B14	38600	26	26	–	–
B15	22900	12	12	–	–
B16	–	–	–	–	IC50 [5]: 21400 nM; IC50 [6]: 5 nM; EC50 [7]: 5 nM
B17	> 20000	10	10	–	–
B18	–	–	–	8220	–
B19	–	–	–	923	–
B20	17600	173	173	–	–
B21	22200	10	10	–	–
B22	–	–	–	734	DLD1 4% Abs IC50 [8]: > 20000 nM
B23	43100	34	34	–	–
B24	–	–	–	904	DLD1 4% Abs IC50 [8]: > 20000 nM
